Molecular target: human Fc (human)
Assay: ELISA; negative control

B1: 365_B03 (antibody, V domains shown)
VH: EVQLLESGGGLVQPGGSLRLSCAASGFTFSSYSMNWVRQAPGKGLEWVAGINYNGGYTGYADSVKGRFTISRDNSKNTLYLQMNSLRAEDTAVYYCARSATWHDTHLDYWGQGTLVTVSS
VL: DIQMTQSPSSLSASVGDRVTITCRASQSIVSYLNWYQQKPGKAPKLLIYAATSRASGVPSRFSGSGSGTDFTLTISSLQPEDFATYYCQQSYENPLTFGGGTKVEIK
Q: Which optical density does the source give for B1 here?
A: 0.444 OD

B2: 369_A05 (antibody, V domains shown)
VH: EVQLLESGGGLVQPGGSLRLSCAASGFTFSSYSMNWVRQAPGKGLEWVAGINYNGGYTGYADSVKGRFTISRDNSKNTLYLQMNSLRAEDTAVYYCARSATWHDTHLDYWGQGTLVTVSS
VL: DIQMTQSPSSLSASVGDRVTITCRASQSILTYVNWYQQKPGKAPKLVIYAATSRASGVPSRFSGSGSGTDFTLTISSLQPEDFATYYCQQSYESPLTFGGGTKVEIK
Q: Which optical density does the source give for B2 here?
A: 0.588 OD

B3: 373_H10 (antibody, V domains shown)
VH: EVQLLESGGGLVQPGGSLRLSCAASGFTFSSYSMNWVRQAPGKGLEWVAGINYNGGYTGYADSVKGRFTISRDNSKNTLYLQMNSLRAEDTAVYYCARSATWHDTHLDYWGQGTLVTVSS
VL: DIQMTQSPSSLSASVGDRVTITCRASQSILSYVNWYQQKPGKAPKLLIYAATSRASGVPSRFSGSGSGTDFTLTISSLQPEDFATYYCQQSYSLPLTFGGGTKVEIK
Q: For B3, which optical density is on record?
A: 0.2 OD

B4: 367_A09 (antibody, V domains shown)
VH: EVQLLESGGGLVQPGGSLRLSCAASGFTFDSYGMNWVRQAPGKGLEWVAGINYNGGYTSYADSVKGRFTISRDNSKNTLYLQMNSLRAEDTAVYYCARSATWHDTHLDYWGQGTLVTVSS
VL: DIQMTQSPSSLSASVGDRVTITCRASQSILSYVNWYQQKPGKAPKLVIYAATSRHSGVPSRFSGSGSGTDFTLTISSLQPEDFATYYCQQSYDTPLTFGGGTKVEIK
Q: For B4, which optical density is on record?
A: 0.259 OD

B5: 370_F08 (antibody, V domains shown)
VH: EVQLLESGGGLVQPGGSLRLSCAASGFTFDSYSMNWVRQAPGKGLEWVAGINYNGGYTSYADSVKGRFTISRDNSKNTLYLQMNSLRAEDTAVYYCARSATWHDTHLDYWGQGTLVTVSS
VL: DIQMTQSPSSLSASVGDRVTITCRASQSIISYVNWYQQKPGKAPKLLIYAATSRHSGVPSRFSGSGSGTDFTLTISSLQPEDFATYYCQQSYNLPLTFGGGTKVEIK
Q: With B5 as the binder, how does the optical density read?
A: 0.495 OD

B6: 376_B01 (antibody, V domains shown)
VH: EVQLLESGGGLVQPGGSLRLSCAASGFTFDSYSMNWVRQAPGKGLEWVAGINYNGGYTSYADSVKGRFTISRDNSKNTLYLQMNSLRAEDTAVYYCARSATWHDTHLDYWGQGTLVTVSS
VL: DIQMTQSPSSLSASVGDRVTITCRASQSILTYVNWYQQKPGKAPKLVIYAATSRASGVPSRFSGSGSGTDFTLTISSLQPEDFATYYCQQSYNLPLTFGGGTKVEIK
Q: With B6 as the binder, how does the optical density read?
A: 0.308 OD

B7: 365_D05 (antibody, V domains shown)
VH: EVQLLESGGGLVQPGGSLRLSCAASGFTFDSYSMNWVRQAPGKGLEWVAGINYNGGYTSYADSVKGRFTISRDNSKNTLYLQMNSLRAEDTAVYYCARSATWHDTHLDYWGQGTLVTVSS
VL: DIQMTQSPSSLSASVGDRVTITCRASQSILTYVNWYQQKPGKAPKLLIYAATSRASGVPSRFSGSGSGTDFTLTISSLQPEDFATYYCQQSYNSPLTFGGGTKVEIK
Q: How did the optical density turn out when B7 was run?
A: 0.357 OD

B8: 373_E04 (antibody, V domains shown)
VH: EVQLLESGGGLVQPGGSLRLSCAASGFTFDSYSMNWVRQAPGKGLEWVAGINYNGGYTSYADSVKGRFTISRDNSKNTLYLQMNSLRAEDTAVYYCARSATWHDTHLDYWGQGTLVTVSS
VL: DIQMTQSPSSLSASVGDRVTITCRASQSILTYVNWYQQKPGKAPKLLIYAATSRASGVPSRFSGSGSGTDFTLTISSLQPEDFATYYCQQSYNSPLTFGGGTKVEIK
Q: How did the optical density turn out when B8 was run?
A: 0.251 OD

B9: 369_G07 (antibody, V domains shown)
VH: EVQLLESGGGLVQPGGSLRLSCAASGFTFSSYSMNWVRQAPGKGLEWVAGINYNGGYTSYADSVKGRFTISRDNSKNTLYLQMNSLRAEDTAVYYCARSATWHDTHLDYWGQGTLVTVSS
VL: DIQMTQSPSSLSASVGDRVTITCRASQSILTYVNWYQQKPGKAPKLVIYAATSRASGVPSRFSGSGSGTDFTLTISSLQPEDFATYYCQQSYDNPLTFGGGTKVEIK
Q: For B9, which optical density is on record?
A: 0.32 OD

B10: 373_G05 (antibody, V domains shown)
VH: EVQLLESGGGLVQPGGSLRLSCAASGFTFSSYSMNWVRQAPGKGLEWVAGINYNGGYTSYADSVKGRFTISRDNSKNTLYLQMNSLRAEDTAVYYCARSATWHDTHLDYWGQGTLVTVSS
VL: DIQMTQSPSSLSASVGDRVTITCRASQSILSYLNWYQQKPGKAPKLLIYAATSLASGVPSRFSGSGSGTDFTLTISSLQPEDFATYYCQQSYELPLTFGGGTKVEIK
Q: How did the optical density turn out when B10 was run?
A: 0.273 OD

B11: 372_F07 (antibody, V domains shown)
VH: EVQLLESGGGLVQPGGSLRLSCAASGFTFDDYSMNWVRQAPGKGLEWVAGINYNSGYKGYADSVKGRFTISRDNSKNTLYLQMNSLRAEDTAVYYCARSATWHDTHLDYWGQGTLVTVSS
VL: DIQMTQSPSSLSASVGDRVTITCRASQSILTYLNWYQQKPGKAPKLVIYAATSRASGVPSRFSGSGSGTDFTLTISSLQPEDFATYYCQQSYELPLTFGGGTKVEIK
Q: How did the optical density turn out when B11 was run?
A: 0.296 OD

B12: 370_H03 (antibody, V domains shown)
VH: EVQLLESGGGLVQPGGSLRLSCAASGFTFDSYSMNWVRQAPGKGLEWVAGINYNSGYKGYADSVKGRFTISRDNSKNTLYLQMNSLRAEDTAVYYCARSATWHDTHLDYWGQGTLVTVSS
VL: DIQMTQSPSSLSASVGDRVTITCRASQSILTYLNWYQQKPGKAPKLLIYAATSLASGVPSRFSGSGSGTDFTLTISSLQPEDFATYYCQQSYDTPLTFGGGTKVEIK
Q: How did the optical density turn out when B12 was run?
A: 0.381 OD

B13: 366_A03 (antibody, V domains shown)
VH: EVQLLESGGGLVQPGGSLRLSCAASGFTFDSYSMNWVRQAPGKGLEWVAGINYNSGYKGYADSVKGRFTISRDNSKNTLYLQMNSLRAEDTAVYYCARSATWHDTHLDYWGQGTLVTVSS
VL: DIQMTQSPSSLSASVGDRVTITCRASQSISSYLNWYQQKPGKAPKLLIYAATSLASGVPSRFSGSGSGTDFTLTISSLQPEDFATYYCQQSYSNPLTFGGGTKVEIK
Q: How did the optical density turn out when B13 was run?
A: 0.303 OD

B14: 365_A07 (antibody, V domains shown)
VH: EVQLLESGGGLVQPGGSLRLSCAASGFTFSSYGMNWVRQAPGKGLEWVAGINYNSGYKGYADSVKGRFTISRDNSKNTLYLQMNSLRAEDTAVYYCARSATWHDTHLDYWGQGTLVTVSS
VL: DIQMTQSPSSLSASVGDRVTITCRASQSIVSYLNWYQQKPGKAPKLLIYAATSRASGVPSRFSGSGSGTDFTLTISSLQPEDFATYYCQQSYNLPLTFGGGTKVEIK
Q: How did the optical density turn out when B14 was run?
A: 0.284 OD

B15: 376_B06 (antibody, V domains shown)
VH: EVQLLESGGGLVQPGGSLRLSCAASGFTFSSYSMNWVRQAPGKGLEWVAGINYNSGYKGYADSVKGRFTISRDNSKNTLYLQMNSLRAEDTAVYYCARSATWHDTHLDYWGQGTLVTVSS
VL: DIQMTQSPSSLSASVGDRVTITCRASQSILTYLNWYQQKPGKAPKLLIYAATSRASGVPSRFSGSGSGTDFTLTISSLQPEDFATYYCQQSYDLPLTFGGGTKVEIK
Q: B15 was tested. Which optical density did it give?
A: 0.222 OD

B16: 374_C11 (antibody, V domains shown)
VH: EVQLLESGGGLVQPGGSLRLSCAASGFTFSSYSMNWVRQAPGKGLEWVAGINYNSGYKGYADSVKGRFTISRDNSKNTLYLQMNSLRAEDTAVYYCARSATWHDTHLDYWGQGTLVTVSS
VL: DIQMTQSPSSLSASVGDRVTITCRASQSILTYLNWYQQKPGKAPKLLIYAATSRASGVPSRFSGSGSGTDFTLTISSLQPEDFATYYCQQSYESPLTFGGGTKVEIK
Q: B16 was tested. Which optical density did it give?
A: 0.471 OD

B17: 365_B09 (antibody, V domains shown)
VH: EVQLLESGGGLVQPGGSLRLSCAASGFTFDSYSMNWVRQAPGKGLEWVAGINYNSGYKSYADSVKGRFTISRDNSKNTLYLQMNSLRAEDTAVYYCARSATWHDTHLDYWGQGTLVTVSS
VL: DIQMTQSPSSLSASVGDRVTITCRASQSILRYLNWYQQKPGKAPKLLIYAATSLHSGVPSRFSGSGSGTDFTLTISSLQPEDFATYYCQQSYDNPLTFGGGTKVEIK
Q: How did the optical density turn out when B17 was run?
A: 0.272 OD

B18: 373_E06 (antibody, V domains shown)
VH: EVQLLESGGGLVQPGGSLRLSCAASGFTFDSYSMNWVRQAPGKGLEWVAGINYNSGYKSYADSVKGRFTISRDNSKNTLYLQMNSLRAEDTAVYYCARSATWHDTHLDYWGQGTLVTVSS
VL: DIQMTQSPSSLSASVGDRVTITCRASQSILRYLNWYQQKPGKAPKLLIYAATSLHSGVPSRFSGSGSGTDFTLTISSLQPEDFATYYCQQSYDNPLTFGGGTKVEIK
Q: For B18, which optical density is on record?
A: 0.187 OD

B19: 374_C05 (antibody, V domains shown)
VH: EVQLLESGGGLVQPGGSLRLSCAASGFTFDSYSMNWVRQAPGKGLEWVAGINYNSGYKSYADSVKGRFTISRDNSKNTLYLQMNSLRAEDTAVYYCARSATWHDTHLDYWGQGTLVTVSS
VL: DIQMTQSPSSLSASVGDRVTITCRASQSIIRYLNWYQQKPGKAPKLVIYAATSRASGVPSRFSGSGSGTDFTLTISSLQPEDFATYYCQQSYDNPLTFGGGTKVEIK
Q: How did the optical density turn out when B19 was run?
A: 0.175 OD

B20: 376_C11 (antibody, V domains shown)
VH: EVQLLESGGGLVQPGGSLRLSCAASGFTFDSYSMNWVRQAPGKGLEWVAGINYNSGYKSYADSVKGRFTISRDNSKNTLYLQMNSLRAEDTAVYYCARSATWHDTHLDYWGQGTLVTVSS
VL: DIQMTQSPSSLSASVGDRVTITCRASQSILTYLNWYQQKPGKAPKLVIYAATSRASGVPSRFSGSGSGTDFTLTISSLQPEDFATYYCQQSYDNPLTFGGGTKVEIK
Q: B20 was tested. Which optical density did it give?
A: 0.23 OD

B21: 373_C09 (antibody, V domains shown)
VH: EVQLLESGGGLVQPGGSLRLSCAASGFTFDSYSMNWVRQAPGKGLEWVAGINYNSGYKSYADSVKGRFTISRDNSKNTLYLQMNSLRAEDTAVYYCARSATWHDTHLDYWGQGTLVTVSS
VL: DIQMTQSPSSLSASVGDRVTITCRASQSILTYLNWYQQKPGKAPKLVIYAATSRASGVPSRFSGSGSGTDFTLTISSLQPEDFATYYCQQSYELPLTFGGGTKVEIK
Q: For B21, which optical density is on record?
A: 0.17 OD

B22: 368_H01 (antibody, V domains shown)
VH: EVQLLESGGGLVQPGGSLRLSCAASGFTFSSYSMNWVRQAPGKGLEWVAGINYNSGYKSYADSVKGRFTISRDNSKNTLYLQMNSLRAEDTAVYYCARSATWHDTHLDYWGQGTLVTVSS
VL: DIQMTQSPSSLSASVGDRVTITCRASQSILSYLNWYQQKPGKAPKLLIYATTSLASGVPSRFSGSGSGTDFTLTISSLQPEDFATYYCQQSYDNPLTFGGGTKVEIK
Q: B22 was tested. Which optical density did it give?
A: 0.374 OD

Source: patent US20210380703A1
